For two substances, stoichiometry N results are on record in paper PMC4121272, “Two β-Galactosidases from the Human Isolate Bifidobacterium breve DSM 20213: Molecular Cloning and Expression, Biochemical Characterization and Synthesis of Galacto-Oligosaccharides” (PLoS ONE, 2014).

Assay [1] has as its target β-galactosidase β-gal I from Bifidobacterium breve DSM 20213 (Bifidobacterium breve DSM 20213). The assay is described as follows: SEC-MALS; Superdex S200 10/300 GL; 20 mM Tris pH 7.5, 150 mM NaCl, 1 mM β-mercaptoethanol, 5 mM EDTA; room temperature; 50 µL injected at 2.5 mg/mL; on-line MALLS and refractive index. On the technique in general: In gel filtration, larger molecules generally elute earlier.

Assay [2] deals with β-galactosidase β-gal II from Bifidobacterium breve DSM 20213 (Bifidobacterium breve DSM 20213). The description is as above.

In general, stoichiometry N refers to a count of units in the complex or per binding partner. As to “β-galactosidase β-gal I from Bifidobacterium breve DSM 20213 (enzyme)”, the stoichiometry N in assay [1] was determined as 2.

Regarding “β-galactosidase β-gal II from Bifidobacterium breve DSM 20213 (enzyme)”, the stoichiometry N in assay [2] was determined as 2.
